Our source for the protein stability index values is the supplement of paper PMC9732359.

± gives the uncertainty stated by the source.

The data set can be described thus: protein stability index of a GFP-peptide fusion (yeast GPS) (PSI 1-4); higher = more stable; sorted into four equal gates, so the index is relative within each strain. Put shortly:
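Tiled yeast protein peptides of 17 residues were each joined downstream of GFP, on plasmids that also express Cherry. The pooled library was maintained in yeast, and mid-log cultures in leucine-free medium were sorted into four equal gates on the GFP/Cherry ratio. Plasmids from every gate were amplified by PCR and sequenced on Illumina, with barcodes linking reads to strains. The protein stability index of a peptide is its gate-number-weighted read frequency summed over the gates.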

In the case of GCEANIHSLVKQRLDLA [YIL149C/MLP2], the protein stability index was determined as 3.06 ± 0.12 (doa10∆), 3.19 ± 0.11 (pdr5∆), 3.05 ± 0.062 (san1∆) and 3.19 ± 0.076 (ubr1∆).
On the same counts, the results for VFHDPDHSMILPSGVLS [SMC3] are 1.71 ± 0.15, 2.08 ± 0.089, 2.04 ± 0.13 and 2 ± 0.047.
On the same counts, the results for DSVEFIFQAKRNSNPEN [RPN10] are 2.75 ± 0.087, 2.73 ± 0.089, 3.2 ± 0.12 and 2.69 ± 0.083.
On the same counts, the results for TNLQRNVDRLYKLNVRS [NUT2] are 3.66 ± 0.19, 3.62 ± 0.2, 3.01 ± 0.18 and 3.49 ± 0.073.
As for SPHYNSQKQTLIKKPLT [SSN3], the protein stability index stood at 2.52 ± 0.064 (doa10∆), 2.87 ± 0.056 (pdr5∆), 2.46 ± 0.058 (san1∆) and 2.65 ± 0.036 (ubr1∆).
On the same counts, the results for MSRSLANGIINVKEITE [SMC3] are 2.63 ± 0.092, 2.8 ± 0.073, 2.77 ± 0.12 and 2.87 ± 0.064.
On the same counts, the results for PIYTGDGWVKLTYKSEL [YMR153W/NUP53] are 2.24 ± 0.081, 2.38 ± 0.09, 2.45 ± 0.11 and 1.98 ± 0.049.
For IKTFLVDLTSSNFADSA [YDL116W/NUP84], the protein stability index turned out to be 2.3 ± 0.089 (doa10∆), 2.82 ± 0.094 (pdr5∆), 2.78 ± 0.1 (san1∆) and 2.76 ± 0.069 (ubr1∆).
On the same counts, the results for SNIPRGSVIQTHIAESA [MCD1] are 2.81 ± 0.1, 2.88 ± 0.084, 2.62 ± 0.09 and 2.91 ± 0.051.
On the same counts, the results for KVISEILTREVQNSTLA [RPS1B] are 2.51 ± 0.11, 2.86 ± 0.1, 2.64 ± 0.069 and 2.32 ± 0.059.
On the same counts, the results for LIIRCRVVRPKSLDAET [RPO21] are 2.35 ± 0.11, 2.52 ± 0.09, 2.22 ± 0.13 and 2.51 ± 0.19.
In the case of ASEVATHSKLFADKKRD [PRP8], the protein stability index is, setting by setting: (doa10∆) 2.51 ± 0.063; (pdr5∆) 2.69 ± 0.073; (san1∆) 2.31 ± 0.079; (ubr1∆) 2.56 ± 0.068.
On the same counts, the results for NLLPKKSAKATKASQEL [HTA1] are 2.93 ± 0.1, 3.09 ± 0.12, 3.17 ± 0.069 and 3.03 ± 0.088.
On the same counts, the results for NVIRSLEQEYRLILLLN [RMP1] are 1.44 ± 0.036, 1.19 ± 0.022, 1.29 ± 0.071 and 1.35 ± 0.038.
FLRTQFLKLYVLVKWTR [RGR1]: the protein stability index reads like this: (doa10∆) 1.46 ± 0.084; (pdr5∆) 1.95 ± 0.065; (san1∆) 1.63 ± 0.11; (ubr1∆) 1.56 ± 0.06.
On the same counts, the results for KFSLPFEQKGSQTTTND [YLR335W/NUP2] are 3.25 ± 0.1, 3.08 ± 0.1, 3.11 ± 0.099 and 3.09 ± 0.094.
On the same counts, the results for HIAHTLPEKVNFRTMQQ [SSN2] are 2.78 ± 0.079, 2.92 ± 0.072, 2.83 ± 0.083 and 2.75 ± 0.071.
As to ARKGLTPSQIGVLLRDA [RPS13], the protein stability index worked out at 2.91 ± 0.26 (doa10∆), 2.09 ± 0.21 (san1∆) and 2.32 ± 0.041 (ubr1∆).
Take PEQYSDILLNERVWNIC [AAR2]: the protein stability index by setting is: (doa10∆) 3.38 ± 0.12; (pdr5∆) 3.23 ± 0.22; (san1∆) 2.68 ± 0.18; (ubr1∆) 2.99 ± 0.18.
On the same counts, the results for LPVKWETTTQFKATHIL [FAS1] are 2.52 ± 0.06, 2.32 ± 0.057, 2.23 ± 0.063 and 2.34 ± 0.04.
On the same counts, the results for SQTMAETYVASYVVPRL [ECM29] are 1.85 ± 0.042, 1.82 ± 0.049, 1.9 ± 0.069 and 2 ± 0.038.
On the same counts, the results for YSKIPNILSNKPGQNNR [RRP6] are 2.16 ± 0.087, 2.37 ± 0.074, 1.99 ± 0.16 and 1.77 ± 0.047.
In the case of IKSQYYSRISKLKQLLD [YIL149C/MLP2], the protein stability index by setting is: (doa10∆) 1.2 ± 0.095; (pdr5∆) 1.87 ± 0.11; (san1∆) 1.64 ± 0.12; (ubr1∆) 1.45 ± 0.068.
On the same counts, the results for FQSVQLNINNPNFLIMQ [SMC2] are 2.6 ± 0.06, 2.62 ± 0.071, 1.75 ± 0.062 and 2.1 ± 0.061.
On the same counts, the results for EVEEDDEDDDQPMISPD [SWI3] are 3.21 ± 0.099, 3.45 ± 0.056, 3.33 ± 0.046 and 3.15 ± 0.06.
MPNIELYLKVIPMDFIR [SSN2] gave a protein stability index (doa10∆) of 2.22 ± 0.072, a protein stability index (pdr5∆) of 2.14 ± 0.076, a protein stability index (san1∆) of 1.95 ± 0.082 and a protein stability index (ubr1∆) of 2.54 ± 0.079.
On the same counts, the results for IEQLFPVRPVRVRHEDV [RPC53] are 2.9 ± 0.076, 2.97 ± 0.048, 2.89 ± 0.055 and 3.03 ± 0.037.
With VKQIAPAELEGLLDLER [FAS2], the protein stability index (doa10∆) was 3.11 ± 0.3.
In the case of SGLNRAISTGNWSLKRF [RET1], the protein stability index (doa10∆) was 2.56 ± 0.07, the protein stability index (pdr5∆) was determined as 2.57 ± 0.078, the protein stability index (san1∆) amounted to 2.67 ± 0.087 and the protein stability index (ubr1∆) is 2.41 ± 0.054.
In the case of LGNEKNQASTSKRVYKI [CDC53], the protein stability index amounted to 2.83 ± 0.12 (pdr5∆) and 2.92 ± 0.096 (san1∆).
In the case of GENVFLKRISDGLSFGK [SIR3], the protein stability index amounted to 3.26 ± 0.18 (doa10∆), 3.39 ± 0.17 (pdr5∆), 3.42 ± 0.075 (san1∆) and 3.54 ± 0.09 (ubr1∆).
On the same counts, the results for DKLINDVTAIQTWSYLS [ECM29] are 1.77 ± 0.04, 1.78 ± 0.04, 1.74 ± 0.087 and 1.83 ± 0.044.
Regarding RQKKKPTSAQKSAVSHA [IRR1], the protein stability index runs as follows: (doa10∆) 1.34 ± 0.24; (ubr1∆) 1.56 ± 0.15.
For VRSREDRKNRAPPQRPR [RPS26A], the protein stability index is, setting by setting: (doa10∆) 3.27 ± 0.26; (san1∆) 2.76 ± 0.12.
Sequence ITSWYENHNKGKLWKDV [QCR9] had a protein stability index (doa10∆) of 2.81 ± 0.21, a protein stability index (pdr5∆) of 3.14 ± 0.23, a protein stability index (san1∆) of 3.3 ± 0.1 and a protein stability index (ubr1∆) of 3.21 ± 0.13.
On the same counts, the results for IEAIDEYNKPNSEKFVF [ISW2] are 2.6 ± 0.1, 2.76 ± 0.075, 3.01 ± 0.092 and 3.15 ± 0.075.
On the same counts, the results for KFRSSILRKSFDFLMNM [RPN2] are 2.1 ± 0.13, 2.4 ± 0.1, 2.04 ± 0.12 and 2.4 ± 0.072.
As to DIVSIDIEEPQLDLLDD [MTW1], the protein stability index by setting is: (doa10∆) 2.66 ± 0.098; (pdr5∆) 3.17 ± 0.097; (san1∆) 3.25 ± 0.05; (ubr1∆) 3.16 ± 0.048.
On the same counts, the results for IDNYITNSVRLFEVNPS [SRP21] are 2.61 ± 0.1, 2.78 ± 0.088, 2.54 ± 0.091 and 2.28 ± 0.12.
